Results from publication PMC3748711, “APP interacts with LRP4 and agrin to coordinate the development of the neuromuscular junction in mice” (eLife, 2013).

B1: APP-Fc (APP695 extracellular domain, residues 1-596, fused to the constant region of human IgG) (Fc fusion, UniProt P12023-2 18-596, looked up)
chain: LEVPTDGNAGLLAEPQIAMFCGKLNMHMNVQNGKWESDPSGTKTCIGTKEGILQYCQEVYPELQITNVVEANQPVTIQNWCKRGRKQCKTHTHIVIPYRCLVGEFVSDALLVPDKCKFLHQERMDVCETHLHWHTVAKETCSEKSTNLHDYGMLLPCGIDKFRGVEFVCCPLAEESDSVDSADAEEDDSDVWWGGADTDYADGGEDKVVEVAEEEEVADVEEEEADDDEDVEDGDEVEEEAEEPYEEATERTTSTATTTTTTTESVEEVVRVPTTAASTPDAVDKYLETPGDENEHAHFQKAKERLEAKHRERMSQVMREWEEAERQAKNLPKADKKAVIQHFQEKVESLEQEAANERQQLVETHMARVEAMLNDRRRLALENYITALQAVPPRPHHVFNMLKKYVRAEQKDRQHTLKHFEHVRMVDPKKAAQIRSQVMTHLRVIYERMNQSLSLLYNVPAVAEEIQDEVDELLQKEQNYSDDVLANMISEPRISYGNDALMPSLTETKTTVELLPVNGEFSLDDLQPWHPFGVDSVPANTENEVEPVDARPAADRGLTTRPGSGLTNIKTEEISEVKM

What was measured:
[1] = molecular target: B1; experiment: pull-down; 100 ng purified APP-Fc on Protein A-agarose beads, incubated with 100 ng purified MBP-LRP4LBD and 0-1000 ng neuronal agrin in PBS with 0.1% BSA, 4 hr, 4°C; immunoblot with anti-MBP, anti-agrin, anti-Fc; conditions: both partners purified
[2] = molecular target: LRP4 (endogenous, mouse embryonic muscle) (mouse (endogenous in embryonic muscle), UniProt Q8VI56 21-1905); experiment: cell-based or functional assay
Chain of LRP4 (endogenous, mouse embryonic muscle) (Q8VI56 21-1905): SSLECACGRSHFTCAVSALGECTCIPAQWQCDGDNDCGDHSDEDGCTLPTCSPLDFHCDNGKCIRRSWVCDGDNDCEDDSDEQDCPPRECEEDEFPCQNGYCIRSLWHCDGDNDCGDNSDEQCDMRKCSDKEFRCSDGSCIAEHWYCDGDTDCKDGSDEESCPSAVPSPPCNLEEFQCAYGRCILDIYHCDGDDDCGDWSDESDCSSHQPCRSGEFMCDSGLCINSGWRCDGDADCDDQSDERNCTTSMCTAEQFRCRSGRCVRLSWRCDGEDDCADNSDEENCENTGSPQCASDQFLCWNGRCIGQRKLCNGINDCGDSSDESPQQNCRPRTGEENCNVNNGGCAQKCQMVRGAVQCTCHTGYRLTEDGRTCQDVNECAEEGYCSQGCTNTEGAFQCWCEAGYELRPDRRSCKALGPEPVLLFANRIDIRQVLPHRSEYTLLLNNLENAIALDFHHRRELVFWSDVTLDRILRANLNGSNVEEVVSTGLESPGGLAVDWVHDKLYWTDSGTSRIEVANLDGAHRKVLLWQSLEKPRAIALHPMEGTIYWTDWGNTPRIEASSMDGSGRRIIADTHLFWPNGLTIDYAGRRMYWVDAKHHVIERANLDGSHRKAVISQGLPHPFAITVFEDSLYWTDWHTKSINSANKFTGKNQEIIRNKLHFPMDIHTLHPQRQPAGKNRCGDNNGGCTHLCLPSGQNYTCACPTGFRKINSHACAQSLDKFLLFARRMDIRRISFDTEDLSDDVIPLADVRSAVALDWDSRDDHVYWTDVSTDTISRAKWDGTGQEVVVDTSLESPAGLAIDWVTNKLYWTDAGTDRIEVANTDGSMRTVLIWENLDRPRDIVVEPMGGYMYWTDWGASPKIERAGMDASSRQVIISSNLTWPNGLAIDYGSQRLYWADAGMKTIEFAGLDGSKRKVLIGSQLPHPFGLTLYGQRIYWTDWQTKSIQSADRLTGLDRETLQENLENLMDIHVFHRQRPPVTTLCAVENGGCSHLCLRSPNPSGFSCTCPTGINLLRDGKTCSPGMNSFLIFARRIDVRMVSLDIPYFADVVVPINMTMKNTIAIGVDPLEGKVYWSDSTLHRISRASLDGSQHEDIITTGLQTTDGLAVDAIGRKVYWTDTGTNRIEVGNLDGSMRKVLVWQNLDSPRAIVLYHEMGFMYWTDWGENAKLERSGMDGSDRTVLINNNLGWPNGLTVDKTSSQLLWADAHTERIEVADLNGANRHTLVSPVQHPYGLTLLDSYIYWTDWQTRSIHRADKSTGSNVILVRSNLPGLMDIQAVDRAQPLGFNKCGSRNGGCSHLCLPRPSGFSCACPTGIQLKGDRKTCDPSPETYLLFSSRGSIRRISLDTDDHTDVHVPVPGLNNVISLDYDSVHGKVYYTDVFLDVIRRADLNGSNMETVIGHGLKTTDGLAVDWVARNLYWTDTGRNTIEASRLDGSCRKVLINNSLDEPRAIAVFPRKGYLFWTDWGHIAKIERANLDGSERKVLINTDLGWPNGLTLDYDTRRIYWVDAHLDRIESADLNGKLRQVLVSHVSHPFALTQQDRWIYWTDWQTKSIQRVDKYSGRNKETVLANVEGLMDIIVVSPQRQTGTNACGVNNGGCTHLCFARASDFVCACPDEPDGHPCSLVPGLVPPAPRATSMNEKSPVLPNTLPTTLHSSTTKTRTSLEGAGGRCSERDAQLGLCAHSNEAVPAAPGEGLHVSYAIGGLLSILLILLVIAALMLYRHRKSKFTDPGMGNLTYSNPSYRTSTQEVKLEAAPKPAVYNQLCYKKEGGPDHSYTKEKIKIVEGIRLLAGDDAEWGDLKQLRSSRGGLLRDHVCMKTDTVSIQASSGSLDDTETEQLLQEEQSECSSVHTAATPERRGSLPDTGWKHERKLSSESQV

| Binder | fold binding against no agrin, with 10 ng/ml agrin [1] [fold] | fold binding against no agrin, with 30 ng/ml agrin [1] [fold] | MuSK tyrosine phosphorylation in myotubes, APP-Fc alone at 1×, 10× or 100× molar concentrations compared to 0.1 nM agrin (0.1-10 nM), 30 min at 37°C, without agrin [2] [fold over baseline] |
| --- | --- | --- | --- |
| MBP-LRP4LBD (LRP4 ligand binding domain, aa 27-349, fused to maltose-binding protein) (domain or fragment, mouse, UniProt Q8VI56 27-349, looked up, Species is stated as mouse for the LRP4-Fc construct, not expressly for this one; Vector pMAL-p4x; also called LRP4-MBP; source: E. coli BL21, periplasmic extract, purified on amylose column; not shown: MBP, N-terminal, kept) CGRSHFTCAVSALGECTCIPAQWQCDGDNDCGDHSDEDGCTLPTCSPLDFHCDNGKCIRRSWVCDGDNDCEDDSDEQDCPPRECEEDEFPCQNGYCIRSLWHCDGDNDCGDNSDEQCDMRKCSDKEFRCSDGSCIAEHWYCDGDTDCKDGSDEESCPSAVPSPPCNLEEFQCAYGRCILDIYHCDGDDDCGDWSDESDCSSHQPCRSGEFMCDSGLCINSGWRCDGDADCDDQSDERNCTTSMCTAEQFRCRSGRCVRLSWRCDGEDDCADNSDEENCENTGSPQCASDQFLCWNGRCIGQRKLCNGINDCGDSSDESPQQNC | 1.3 | 3 |  |
| B1 |  |  | 4.3 |
